# What was measured:
# [1] = test system: IgE (Homo sapiens), P01854-1; experiment: filter; details: DPBS with Ca/Mg, BSA
# [2] = target: IL-23 (full length) (Homo sapiens) (UniProt Q9NPF7+P29460); experiment: filter; details: dRmY, DPBS with Ca/Mg, BSA, RT
# IL-23 (full length) (Homo sapiens), sequence (Q9NPF7 20-189, chain 1 of 2): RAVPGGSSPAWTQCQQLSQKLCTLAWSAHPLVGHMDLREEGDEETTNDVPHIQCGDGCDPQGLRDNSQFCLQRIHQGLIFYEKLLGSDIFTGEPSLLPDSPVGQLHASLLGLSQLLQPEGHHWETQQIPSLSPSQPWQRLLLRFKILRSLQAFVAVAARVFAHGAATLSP
# IL-23 (full length) (Homo sapiens), sequence (P29460 23-328, chain 2 of 2): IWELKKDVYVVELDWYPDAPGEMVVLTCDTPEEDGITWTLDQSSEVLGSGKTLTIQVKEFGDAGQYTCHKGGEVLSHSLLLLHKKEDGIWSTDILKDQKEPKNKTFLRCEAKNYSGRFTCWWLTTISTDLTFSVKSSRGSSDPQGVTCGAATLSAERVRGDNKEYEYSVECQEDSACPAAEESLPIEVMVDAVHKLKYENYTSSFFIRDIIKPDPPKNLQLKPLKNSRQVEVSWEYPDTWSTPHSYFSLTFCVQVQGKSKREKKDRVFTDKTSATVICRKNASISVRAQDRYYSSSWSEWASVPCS
# IgE (Homo sapiens), P01854-1, sequence (P01854 other isoform, or with tags, fused parts or gaps): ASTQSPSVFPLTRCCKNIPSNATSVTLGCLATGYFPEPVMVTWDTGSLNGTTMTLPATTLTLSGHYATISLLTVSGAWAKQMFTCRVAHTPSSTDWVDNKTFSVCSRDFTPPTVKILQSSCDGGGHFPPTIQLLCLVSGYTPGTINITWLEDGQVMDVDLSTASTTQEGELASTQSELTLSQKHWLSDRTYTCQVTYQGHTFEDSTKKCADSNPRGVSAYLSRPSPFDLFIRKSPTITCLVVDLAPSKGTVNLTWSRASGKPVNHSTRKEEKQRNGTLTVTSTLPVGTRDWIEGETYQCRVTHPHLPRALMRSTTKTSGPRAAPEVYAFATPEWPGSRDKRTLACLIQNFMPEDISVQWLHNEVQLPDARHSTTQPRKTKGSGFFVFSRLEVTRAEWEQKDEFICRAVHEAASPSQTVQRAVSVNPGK
sequence,measurement,setting,value
AGCCUGGGGACCCAUGGGGGGCU [ARC918],Kd,"[1]; dRmY, 2'-deoxy-5mC at 22, dC at 12, ssDNA, tRNA, parent 27 nM",14.6 nM
AGCCUGGGGACCCNUGGGGNGCU [ARC1647],Kd,"[1]; as ARC1335 with dI at 14 and 20, 3'-idT, RT, parent ARC1335 15 nM",1 nM
AGCCUGGGGACCCNUGGGGGGCU [ARC1560],Kd,"[1]; as ARC1335 with dI at 14, 3'-idT, RT, parent ARC1335 15 nM",3 nM
AGCCUGGRGACCCRUGGGGGGCU [ARC2360],Kd,"[1]; as ARC1335 with 2'-deoxy-2-aminopurine at 8 and 2'-OMe-2-aminopurine at 14, 3'-idT, RT, parent 2.8 nM",2.7 nM
AGCCUGGGGACCCAUGGGGGGCU [ARC584],Kd,"[1]; dRmY, PS between 16 and 17, RT, parent 12.6 nM",6.9 nM
AGCCUGGGGACCCAUGGGGGGCU [ARC588],Kd,"[1]; dRmY, PS between 20 and 21, RT, parent 12.6 nM",5.3 nM
AGCCUGGGGACCCAUGGGGGGCU [ARC768],Kd,"[1]; dRmY, PS between 13 and 14, 16 and 17, 20 and 21, RT, parent 12.6 nM",3.5 nM
AGCCUGGGGACCCAUGGGGGGCU [ARC751],Kd,"[1]; dRmY, 2'-deoxy-5mC at 3 and 22, ssDNA, tRNA, parent 20 nM",15 nM
AGCCUGGGGACCCAUGGGGGGCU [ARC920],Kd,"[1]; dRmY, 2'-deoxy-5mC at 3 and 22, dC at 12, ssDNA, tRNA, parent 27 nM",12.8 nM
AGCCUGGGGACCCAUGGGGGGCU [ARC702],Kd,"[1]; dRmY, PS between 16 and 17, 20 and 21, RT, parent 12.6 nM",2.6 nM
AGCCUGGGGACCCAUGGGGGGCU [ARC753],Kd,"[1]; dRmY, 2'-deoxy-5mC at 11 and 22, ssDNA, tRNA, parent 20 nM",15 nM
AGCCUGGGGACCCAUGGGGGGCU [ARC1548],Kd,"[1]; as ARC1335 with dI at 2, 3'-idT [dI at 2 (parent base G), other modifications as ARC1335, 3'-idT], RT",3.3 nM
AGCCUGGGGACCCAUGGGGGGCU [ARC608],Kd,"[1]; dRmY, dC in place of sixth mC (position 22, per description; printed sequence shows mC), ssDNA, tRNA, RT, parent 14.6 nM",7.9 nM
AGCCUGGGGACCCAUGGGGGGCU [ARC926],Kd,"[1]; dRmY, 2'-deoxy-5mC at 11, dC at 12 and 22, ssDNA, tRNA, parent 13 nM",5.5 nM
AGCCUGGGGACCCAUGGGGGGCU [ARC925],Kd,"[1]; dRmY, 2'-deoxy-5mC at 3, dC at 12 and 22, ssDNA, tRNA, parent 13 nM",8.1 nM
AGCCUGGGGACCCAUGGGGGGCU [ARC1563],Kd,"[1]; as ARC1335 with dI at 17, 3'-idT [17], RT",2.2 nM
AGCCUGGGGACCCAUGGGGGGCU [ARC1566],Kd,"[1]; as ARC1335 with dI at 20, 3'-idT [20], RT, other run 8 nM (Table 9, parent ARC1335 15 nM)",0.1 nM
AGCCUGGGGACCCAUGGGGGGCU [ARC602],Kd,"[1]; dRmY, 2'-deoxy-5mC at 22, ssDNA, tRNA, parent 20 nM, other run 9 nM (Table 13, parent 8.5 nM)",26 nM
ACAGGCAAGUAAUUGGGGAGUGCGGGCGGGGUGU [ARC1653],Kd,"[2]; dI at 6th dA (position 12) [12], parent 13 nM",25 nM
AGCCUGGRGACCCAUGGGGGGCU [ARC2044],Kd,"[1]; as ARC1335 with 2'-deoxy-2-aminopurine at 8, 3'-idT, RT, parent 2.8 nM",3.9 nM
ACAGGCAAGUAAUUGGGGAGUGCGGGCGGGGUGN [ARC1702],Kd,"[2]; 2'-OMe inosine for last mU, 3'-idT (last t of SEQ), parent 15 nM",10 nM
AGCCUGGGGACCCAUGGGGGGCU [ARC1565],Kd,"[1]; as ARC1335 with dI at 19, 3'-idT [19], RT",1.4 nM
RGCCUGGGGACCCAUGGGGGGCU [ARC2040],Kd,"[1]; as ARC1335 with 2'-OMe-2-aminopurine at 1, 3'-idT, RT, parent 2.8 nM",18.7 nM
AGCCUGGGGACCCAUGGGGGGCU [ARC921],Kd,"[1]; dRmY, 2'-deoxy-5mC at 11 and 22, dC at 12, ssDNA, tRNA, parent 13 nM",8.5 nM
AGCCUGGGGACCCAUGGGGGGCU [ARC916],Kd,"[1]; dRmY, 2'-deoxy-5mC at 3, dC at 12, ssDNA, tRNA, parent 27 nM",13.7 nM
AGCCUGGGGACCCAUGGGGGGCU [ARC1562],Kd,"[1]; as ARC1335 with dI at 16, 3'-idT [16], RT",0.6 nM
ACAGGCAAGUAANUGGGGAGUGCGGGCGGGGUGU [ARC1683],Kd,"[2]; 2'-OMe inosine for 2nd mU, 3'-idT (last t of SEQ), parent 9.8 nM",4.8 nM
AGCCUGGGGACCCAUGGGGGGCU [ARC915],Kd,"[1]; dRmY, 2'-deoxy-5mC at 11, dC at 22, ssDNA, tRNA, parent 27 nM",16.9 nM
ACAGGCAAGUAAUUGGGGAGUGCGGGCGGGGUGU [ARC1648],Kd,"[2]; dI at 1st dA (position 1) [1], parent 13 nM",12 nM
RGCCUGGRGACCCRUGGGGGGCU [ARC2361],Kd,"[1]; as ARC1335 with 2'-OMe-2-aminopurine at 1 and 14 and 2'-deoxy-2-aminopurine at 8, 3'-idT, RT, parent 2.8 nM",0.8 nM
AGCCUGGGGACCCAUGGGGGGCU [ARC597],Kd,"[1]; dRmY, 2'-deoxy-5mC at 3, ssDNA, tRNA, parent 20 nM, other run 16 nM (Table 13, parent 8.5 nM)",21.5 nM
AGCCUGGGGACCCAUGGGGGGCU [ARC445],Kd,"[1]; 2'-deoxy purines, 2'-OMe pyrimidines (dRmY), RT, other runs 12.6 nM (Table 10), with ssDNA and tRNA 14.6 (Table 8), 20 (Table 12), 8.5, 27 and 13 (Table 13)",3 nM
AGCCUGGGGACCCAUGGGGGGCU [ARC756],Kd,"[1]; dRmY, 2'-deoxy-5mC at 3, 11 and 22, ssDNA, tRNA, parent 20 nM",14 nM
AGCCUGGGGACCCAUGGGGGGCU [ARC1564],Kd,"[1]; as ARC1335 with dI at 18, 3'-idT [18], RT",0.5 nM
AGCCUGGGGACCCAUGGGGGGCU [ARC599],Kd,"[1]; dRmY, 2'-deoxy-5mC at 11, ssDNA, tRNA, parent 20 nM, other run 10.4 nM (Table 13, parent 8.5 nM)",20.5 nM
AGCCUGGGGACCCAUGGGGGGCU [ARC1335],Kd,"[1]; ARC445 with 2'-OMe purines at 1, 2, 7, 10, 14, 17, other purines 2'-deoxy, 2'-OMe pyrimidines, 3'-idT (last t of SEQ), RT, other runs 15 nM (Table 9), 2.8 nM (Table 11)",0.3 nM
AGCCUGGGGACCCAUGGGGGGCU [ARC767],Kd,"[1]; dRmY, PS between 12 and 13, 16 and 17, 20 and 21, RT, parent 12.6 nM",2.7 nM
AGCCUGGGGACCCAUGGGGGGCU [ARC914],Kd,"[1]; dRmY, 2'-deoxy-5mC at 3, dC at 22, ssDNA, tRNA, parent 27 nM",11.9 nM
ACAGGCAAGUAAUUGGGGAGUGCGGGCGGGGUGU [ARC1650],Kd,"[2]; dI at 3rd dA (position 7) [7], parent 13 nM",34 nM
AGCCUGGGGACCCRUGGGGGGCU [ARC2047],Kd,"[1]; as ARC1335 with 2'-OMe-2-aminopurine at 14, 3'-idT, RT, parent 2.8 nM",4.8 nM
